Measured values as given in PMC6888645, “Oligomerization Affects the Ability of Human Cyclase-Associated Proteins 1 and 2 to Promote Actin Severing by Cofilins” (International Journal of Molecular Sciences, 2019).

B1: N-CAP2, N-terminal fragment of human cyclase-associated protein 2 (original coiled coil and helical folded domain) (domain or fragment, UniProt P40123 1-220, looked up)
chain: MANMQGLVERLERAVSRLESLSAESHRPPGNCGEVNGVIAGVAPSVEAFDKLMDSMVAEFLKNSRILAGDVETHAEMVHSAFQAQRAFLLMASQYQQPHENDVAALLKPISEKIQEIQTFRERNRGSNMFNHLSAVSESIPALGWIAVSPKPGPYVKEMNDAATFYTNRVLKDYKHSDLRHVDWVKSYLNIWSELQAYIKEHHTTGLTWSKTGPVASTVS
notes: cyclase-associated protein 2 (CAP2), human; N-terminal coiled coil (a.a. 1-29) followed by the helical folded domain (HFD); Cloned in pET21b; 30-220, so this construct probably ends at 220 (surmised); also called CAP2 tetramer; not shown: 6xHis, C-terminal, kept
B2: N-CAP1, N-terminal fragment of human cyclase-associated protein 1 (original coiled coil and helical folded domain) (domain or fragment, UniProt Q01518 1-220, looked up)
chain: MADMQNLVERLERAVGRLEAVSHTSDMHRGYADSPSKAGAAPYVQAFDSLLAGPVAEYLKISKEIGGDVQKHAEMVHTGLKLERALLVTASQCQQPAENKLSDLLAPISEQIKEVITFREKNRGSKLFNHLSAVSESIQALGWVAMAPKPGPYVKEMNDAAMFYTNRVLKEYKDVDKKHVDWVKAYLSIWTELQAYIKEFHTTGLAWSKTGPVAKELSGL
notes: cyclase-associated protein 1 (CAP1), human; N-terminal coiled coil (a.a. 1-29) followed by the helical folded domain (HFD); Cloned in pET21b; also called CAP1 tetramer; not shown: 6xHis, C-terminal, kept

Tests used:
[1] = molecular target: the molecule itself; assay: AUC; sedimentation velocity (SV-AUC), 50 µM protein, 20 °C, 50,000 rpm, absorbance at 280 nm, 20 mM Tris-HCl pH 8.0, SEDFIT c(S) model; buffer (Tris-HCl vs PBS) and salt did not affect the oligomerization state
[2] = molecular target: F-actin (skeletal muscle actin, polymerised) ( (rabbit or chicken skeletal …, UniProt P68135 1-377)); assay: cell-based or functional assay

Binder | stoichiometry N [1] | potentiation of F-actin severing by 50 nM CFL1 with 750 nM N-CAP construct, single filaments by TIRF microscopy, against CFL1 alone [2]
B1 | 4 | 
B2 | 4 | > 2.5 fold
